Where two headings read alike, the source gives them in different places.
What was measured:
recombinant human CD19 = molecular target: T1, recombinant human CD19 (human, UniProt P15391 20-291)
T1 sequence (looked up): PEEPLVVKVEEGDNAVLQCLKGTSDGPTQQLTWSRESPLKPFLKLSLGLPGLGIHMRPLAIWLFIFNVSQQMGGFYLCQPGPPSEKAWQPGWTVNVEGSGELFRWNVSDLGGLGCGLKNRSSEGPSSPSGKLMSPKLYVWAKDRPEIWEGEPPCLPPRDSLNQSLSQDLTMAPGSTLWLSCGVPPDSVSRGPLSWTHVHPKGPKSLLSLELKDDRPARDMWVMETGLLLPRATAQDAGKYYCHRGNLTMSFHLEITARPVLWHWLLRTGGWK

[1] = molecular target: T2, recombinant human full-length CD20 (human, UniProt P11836 1-297)
T2 sequence (looked up): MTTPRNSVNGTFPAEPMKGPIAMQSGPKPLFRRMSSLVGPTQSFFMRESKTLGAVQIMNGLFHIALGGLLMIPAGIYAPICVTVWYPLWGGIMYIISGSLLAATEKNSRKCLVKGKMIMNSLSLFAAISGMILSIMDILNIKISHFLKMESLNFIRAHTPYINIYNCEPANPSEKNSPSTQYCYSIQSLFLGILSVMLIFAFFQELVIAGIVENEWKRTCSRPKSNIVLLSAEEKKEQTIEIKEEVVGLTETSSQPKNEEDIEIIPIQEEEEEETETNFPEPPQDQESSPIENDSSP

[2] = molecular target: T3, recombinant cynomolgus monkey CD19 (cynomolgus monkey, UniProt A0A2K5W8L9 20-292)
T3 sequence: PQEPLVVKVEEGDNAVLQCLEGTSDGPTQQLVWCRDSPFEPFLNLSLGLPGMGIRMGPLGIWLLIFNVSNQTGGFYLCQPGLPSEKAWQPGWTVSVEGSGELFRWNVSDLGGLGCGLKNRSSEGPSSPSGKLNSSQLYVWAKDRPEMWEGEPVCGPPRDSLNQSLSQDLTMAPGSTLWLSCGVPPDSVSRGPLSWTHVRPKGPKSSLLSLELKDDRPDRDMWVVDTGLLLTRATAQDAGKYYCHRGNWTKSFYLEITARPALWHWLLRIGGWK

[3] = molecular target: T4, recombinant cynomolgus monkey CD20 (cynomolgus monkey, UniProt M4ZHZ6 1-297)
T4 sequence: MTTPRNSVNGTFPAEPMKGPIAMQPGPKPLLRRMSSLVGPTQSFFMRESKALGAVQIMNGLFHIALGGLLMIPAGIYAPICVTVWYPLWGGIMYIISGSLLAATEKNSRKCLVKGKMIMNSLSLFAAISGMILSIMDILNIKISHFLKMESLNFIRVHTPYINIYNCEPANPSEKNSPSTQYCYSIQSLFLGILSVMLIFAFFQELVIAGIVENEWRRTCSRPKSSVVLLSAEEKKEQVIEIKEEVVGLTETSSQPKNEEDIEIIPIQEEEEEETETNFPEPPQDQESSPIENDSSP

[4] = molecular target: T5, cynomolgus monkey Fc gamma receptor CD32b (cynomolgus monkey)
[5] = molecular target: T6, cynomolgus monkey Fc gamma receptor CD32a (cynomolgus monkey)
[6] = molecular target: T7, cynomolgus monkey Fc gamma receptor CD16 (cynomolgus monkey, UniProt Q8SPW2 17-208)
[7] = molecular target: T5, cynomolgus monkey Fc gamma receptor …; remark: listed apart in the source
[8] = molecular target: T6, cynomolgus monkey Fc gamma receptor …; remark: listed apart in the source
[9] = molecular target: T7, cynomolgus monkey Fc gamma receptor CD16; remark: listed apart in the source
[10] = molecular target: T8, recombinant human Fc gamma RI (CD64) (human, UniProt P12314 16-288)
[11] = molecular target: T9, recombinant human Fc gamma RIIb/c (CD32b/c) (human, UniProt P31994 46-217)
T9 sequence (looked up): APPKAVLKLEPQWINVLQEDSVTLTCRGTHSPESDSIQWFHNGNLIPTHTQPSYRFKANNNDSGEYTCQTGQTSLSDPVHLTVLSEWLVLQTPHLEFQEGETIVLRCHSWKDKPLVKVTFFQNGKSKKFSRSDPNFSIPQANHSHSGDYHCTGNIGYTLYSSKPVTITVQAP

[12] = molecular target: T10, recombinant human Fc gamma RIIa (CD32a) 131R (human, UniProt P12318 36-218)
T10 sequence (looked up): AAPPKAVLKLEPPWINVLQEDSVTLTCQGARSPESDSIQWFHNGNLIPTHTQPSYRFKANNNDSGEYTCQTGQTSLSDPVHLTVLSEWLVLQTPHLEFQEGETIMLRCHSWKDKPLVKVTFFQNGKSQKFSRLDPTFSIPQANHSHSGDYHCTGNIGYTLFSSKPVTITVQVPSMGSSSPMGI

[13] = molecular target: T11, recombinant human Fc gamma RIIa (CD32a) 131H (human, UniProt P12318 36-218)
T11 sequence (looked up): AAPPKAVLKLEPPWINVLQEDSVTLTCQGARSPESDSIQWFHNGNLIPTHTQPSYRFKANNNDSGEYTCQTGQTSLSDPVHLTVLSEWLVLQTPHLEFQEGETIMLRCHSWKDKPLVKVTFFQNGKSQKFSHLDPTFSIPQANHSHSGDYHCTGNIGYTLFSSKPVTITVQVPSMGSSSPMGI

[14] = molecular target: T12, recombinant human Fc gamma RIIIa (CD16a) 158V (human, UniProt P08637 17-208)
[15] = molecular target: T13, recombinant human Fc gamma RIIIb (CD16b) (human, UniProt O75015 17-200)
[16] = molecular target: T8, recombinant human Fc gamma RI (CD64); remark: listed apart in the source
[17] = molecular target: T14, recombinant human Fc gamma RIIIa (CD16a) 158F (human, UniProt P08637 17-208)
[18] = molecular target: T9, recombinant human Fc gamma RIIb/c …; remark: listed apart in the source
[19] = molecular target: T10, recombinant human Fc gamma RIIa (CD32a) …; remark: listed apart in the source
[20] = molecular target: T12, recombinant human Fc gamma RIIIa …; remark: listed apart in the source
[21] = molecular target: T13, recombinant human Fc gamma RIIIb (CD16b); remark: listed apart in the source
[22] = molecular target: T14, recombinant human Fc gamma RIIIa …; remark: listed apart in the source
CD20 Lipoparticles = molecular target: T15, CD20 Lipoparticles (Homo sapiens (Human), UniProt P11836 1-297)
T15 sequence: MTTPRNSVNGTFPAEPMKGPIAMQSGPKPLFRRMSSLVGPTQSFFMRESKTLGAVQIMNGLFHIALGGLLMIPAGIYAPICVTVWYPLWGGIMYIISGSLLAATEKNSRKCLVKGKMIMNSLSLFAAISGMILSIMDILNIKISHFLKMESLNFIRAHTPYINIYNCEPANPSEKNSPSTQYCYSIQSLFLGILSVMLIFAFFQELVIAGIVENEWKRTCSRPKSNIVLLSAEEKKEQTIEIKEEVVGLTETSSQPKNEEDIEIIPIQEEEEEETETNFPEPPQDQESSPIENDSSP

[23] = molecular target: T11, recombinant human Fc gamma RIIa (CD32a) …; remark: listed apart in the source
[24] = molecular target: T12, recombinant human Fc gamma RIIIa …; remark: listed apart in the source
[25] = molecular target: T13, recombinant human Fc gamma RIIIb (CD16b); remark: listed apart in the source
[26] = molecular target: T8, recombinant human Fc gamma RI (CD64); remark: listed apart in the source
[27] = molecular target: T14, recombinant human Fc gamma RIIIa …; remark: listed apart in the source
[28] = molecular target: T9, recombinant human Fc gamma RIIb/c …; remark: listed apart in the source
[29] = molecular target: T10, recombinant human Fc gamma RIIa (CD32a) …; remark: listed apart in the source

T8 sequence (P12314 16-288 limits assumed): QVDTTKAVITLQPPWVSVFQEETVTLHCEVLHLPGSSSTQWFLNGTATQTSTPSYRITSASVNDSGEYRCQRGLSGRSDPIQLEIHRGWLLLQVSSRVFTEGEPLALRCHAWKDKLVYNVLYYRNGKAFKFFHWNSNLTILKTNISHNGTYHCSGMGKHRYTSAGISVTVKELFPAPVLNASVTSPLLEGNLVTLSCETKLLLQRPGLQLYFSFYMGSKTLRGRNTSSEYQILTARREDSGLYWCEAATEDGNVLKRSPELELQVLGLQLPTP
T14 sequence (P08637 17-208 limits assumed): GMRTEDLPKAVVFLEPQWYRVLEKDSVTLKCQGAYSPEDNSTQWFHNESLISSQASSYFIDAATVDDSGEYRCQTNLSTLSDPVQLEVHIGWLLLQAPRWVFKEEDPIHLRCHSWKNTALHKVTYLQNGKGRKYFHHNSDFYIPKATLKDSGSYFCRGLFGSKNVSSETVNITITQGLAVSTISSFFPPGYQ
T13 sequence (O75015 17-200 limits assumed): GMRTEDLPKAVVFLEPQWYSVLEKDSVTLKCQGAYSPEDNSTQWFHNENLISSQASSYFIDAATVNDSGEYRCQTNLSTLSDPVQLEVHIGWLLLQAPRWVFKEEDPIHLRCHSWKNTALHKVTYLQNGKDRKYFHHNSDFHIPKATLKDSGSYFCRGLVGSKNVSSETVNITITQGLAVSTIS
T12 sequence (P08637 17-208 F176V limits assumed): as the sequence (P08637 17-208 limits assumed) above, with F160V counted along it
T7 sequence (Q8SPW2 17-208 limits assumed): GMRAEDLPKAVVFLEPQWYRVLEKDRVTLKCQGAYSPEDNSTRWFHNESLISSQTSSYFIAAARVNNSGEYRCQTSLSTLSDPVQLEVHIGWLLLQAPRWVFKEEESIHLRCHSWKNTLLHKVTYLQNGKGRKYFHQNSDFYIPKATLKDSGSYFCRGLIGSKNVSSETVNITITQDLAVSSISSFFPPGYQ

B1: HB2198 (bispecific antibody, human IgG1, kappa)
heavy 1: QVQLVQSGGGVVQPGRSLRLSCAASGVSLPDYGVSWVRKAPGKGLEWVAVIWGSETTYYNSALKSRFTISRDNSKNTLYLQMSSLRAEDTAVYYCAKHYYYGGSFAMDYWGQGTLVTVSSASTKGPSVFPLAPSSKSTSGGTAALGCLVKDYFPEPVTVSWNSGALTSGVHTFPAVLQSSGLYSLESVVTVPSSSLGTQTYICNVNHKPSNTKVDKKVEPKSCTDWSPYADQSIKVRISLKSALGDKAYEWNDNEMYLFRSSVAYAMRQYFLKVKNQMILFGEEDVRVANLKPRISFNFFVTAPKNVSDIIPRTEVEKAIRMSRSRINDAFRLNDNSLEFLGIQPTLGPPNQPPVSTSTSPTRSMAPGAVHLPQPVSTRDKTHTCPPCPAPELLGGPDVFLFPPKPKDTLMISRTPEVTCVVVDVSHEDPEVKFNWYVDGVEVHNAKTKPREEQYNSTYRVVSVLTVLHQDWLNGKEYKCKVSNKALPAPEEKTISKAKGQPREPQVCTLPPSRDELTKNQVSLSCAVKGFYPSDIAVEWESNGQPENNYKTTPPVLDSDGSFFLVSKLTVDKSRWQQGNVFSCSVMHEALHNRFTQKSLSLSPG
heavy 2: QIVLSQSPAILSASPGEKVTMTCRASSSVSYIHWFQKKPGSSPKPWIYATSNLASGVPVRFSGSGSGTSYSLTISRVEAEDAATYYCQQWTSNPPTFGGGTKVEIKSSASTKGPSVFPLAPSSKSTSGGTAALGCLVKDYFPEPVTVSWNSGALTSGVHTFPAVLQSSGLYSLKSVVTVPSSSLGTQTYICNVNHKPSNTKVDKKVEPKSCDKTHTCPPCPAPELLGGPDVFLFPPKPKDTLMISRTPEVTCVVVDVSHEDPEVKFNWYVDGVEVHNAKTKPREEQYNSTYRVVSVLTVLHQDWLNGKEYKCKVSNKALPAPEEKTISKAKGQPREPQVYTLPPCRDELTKNQVSLWCLVKGFYPSDIAVEWESNGQPENNYKTTPPVLDSDGSFFLYSKLTVDKSRWQQGNVFSCSVMHEALHNHYTQKSLSLSPG
light 1: DIQMTQSPSSLSASVGDRVTITCRASQDISKYLNWYQEKPGKAIKLLIYHTSRLHSGVPSRFSGSGSGTDFTLTISSLQPEDFATYYCQQGATLPYTFGPGTKLEIKRTVAAPSVFIFPPSDEQLKSGTASVKCLLNNFYPREAKVQWKVDNALQSGNSQESVTEQDSKDSTYSLSSTLTLSKADYEKHKVYACEVTHQGLSSPVTKSFNRGEC
light 2: QVQLQQPGAELVKPGASVKMSCKASGYTFTSYNMHWVKETPGRGLEWIGAIYPGNGDTSYNQKFKGKATLTADKSSSTAYMQLSSLTSEDSAVYYCARSTYYGGDWYFNVWGAGTLVTVSSASVAAPSVFIFPPSDEQLKSGTASVECLLNNFYPREAKVQWKVDNALQSGNSQESVTEQDSKDSTYSLSSTLTLSKADYEKHKVYACEVTHQGLSSPVTKSFNRGEC
Which Kd (recombinant human CD19) does the source give for B1 here?
The Kd was 1.5 nM.

And the Kd [1]?
Its Kd is 0.2 nM.

And the Kd [2]?
The Kd was 410 nM.

What about the Kd [3] of the same binder?
Its Kd is 1.4 nM.

What about the Kd [4] of the same binder?
Its Kd is 218 nM.

What about the Kd [5] of the same binder?
The Kd was 305 nM.

And the Kd [6]?
The Kd was 1.76 nM.

What about the Kd [7] of the same binder?
The Kd was 3.4 nM.

And the Kd [8]?
Its Kd is 4 nM.

What about the Kd [9] of the same binder?
Its Kd is 2 nM.

And the Kd [10]?
Its Kd is less than 0.02 nM.

And the Kd [11]?
Its Kd is 283 nM.

What about the Kd [12] of the same binder?
Its Kd is 128 nM.

What about the Kd [13] of the same binder?
Its Kd is less than 2 nM.

What about the Kd [14] of the same binder?
The Kd was less than 2 nM.

And the Kd [15]?
The Kd was less than 2 nM.

And the Kd [16]?
Its Kd is less than 0.02 nM.

What about the Kd [17] of the same binder?
The Kd was less than 2 nM.

And the Kd [18]?
Its Kd is 2.2 nM.

And the Kd [19]?
The Kd was less than 2 nM.

What about the Kd [20] of the same binder?
Its Kd is 4.19 nM.

And the Kd [21]?
Its Kd is 95 nM.

And the Kd [22]?
Its Kd is 15.7 nM.

B2: Rc66SIDE-P28-Rc66SIDE (antibody, human IgG1, kappa)
light: QIVLSQSPAILSASPGEKVTMTCRASSSVSYIHWFQQKPGSSPKPWIYATSNLASGVPVRFSGSGSGTSYSLTISRVEAEDAATYYCQQWTSNPPTFGGGTKLEIKRTVAAPSVFIFPPSDEQLKSGTASVVCLLNNFYPREAKVQWKVDNALQSGNSQESVTEQDSKDSTYSLSSTLTLSKADYEKHKVYACEVTHQGLSSPVTKSFNRGEC
heavy: QVQLQQPGAELVKPGASVKMSCKASGYTFTSYNMHWVKQTPGRGLEWIGAIYPGNGDTSYNQKFKGKATLTADKSSSTAYMQLSSLTSEDSAVYYCARSTYYGGDWYFNVWGAGTTVTVSAASTKGPSVFPLAPSSKSTSGGTAALGCLVKDYFPEPVTVSWNSGALTSGVHTFPAVLQSSGLYSLSSVVTVPSSSLGTQTYICNVNHKPSNTKVDKKAEPKSCDKTHTCPPCPAPELLGGPDVFLFPPKPKDTLMISRTPEVTCVVVDVSHEDPEVKFNWYVDGVEVHNAKTKPREEQYNSTYRVVSVLTVLHQDWLNGKEYKCKVSNKALPAPEEKTISKAKGQPREPQVYVLPPSRDELTKNQVSLLCLVKGFYPSDIAVEWESNGQPENNYLTWPPVLDSDGSFFLYSKLTVDKSRWQQGNVFSCSVMHEALHNHYTQKSLSLSPGK
chain: CPPCPAPELLGGPDVFLFPPKPKDTLMISRTPEVTCVVVDVSHEDPEVKFNWYVDGVEVHNAKTKPREEQYNSTYRVVSVLTVLHQDWLNGKEYKCKVSNKALPAPEEKTISKAKGQPREPQVYVYPPSRDELTKNQVSLTCLVKGFYPSDIAVEWESNGQPENNYKTTPPVLDSDGSFALVSKLTVDKSRWQQGNVFSCSVMHEALHNHYTQKSLSLSPGK
With B2 as the binder, how does the Kd (CD20 Lipoparticles) read?
Its Kd is less than 0.001 nM.

What about the Kd [23] of the same binder?
Its Kd is 5.42 nM.

And the Kd [24]?
The Kd was 4.98 nM.

What about the Kd [25] of the same binder?
Its Kd is 5.64 nM.

What about the Kd [26] of the same binder?
The Kd was 1.14 nM.

What about the Kd [27] of the same binder?
The Kd was 6.62 nM.

What about the Kd [28] of the same binder?
Its Kd is 7.28 nM.

What about the Kd [29] of the same binder?
Its Kd is 8.11 nM.

Source: patent US20250084169A1 (published 2025)
